Results: publication PMC2639635, “The Structure of Phosphorylase Kinase Holoenzyme at 9.9 Å Resolution and Location of the Catalytic Subunit and the Substrate Glycogen Phosphorylase” (Structure(London, England:1993), 2009)

B1: phosphorylase kinase β subunit (natural protein, rabbit (endogenous in skeletal muscle), UniProt P12798 1-1093, looked up)
chain: MAGATGLMAEVSWKVLERRARTKRSGSVYEPLKSINLPRPDNETLWDKLDYYYKIVKSTLLLYQSPTTGLFPTKTCGGDQTAKIHDSLYCAAGAWALALAYRRIDDDKGRTHELEHSAIKCMRGILYCYMRQADKVQQFKQDPRPTTCLHSLFNVHTGDELLSYEEYGHLQINAVSLYLLYLVEMISSGLQIIYNTDEVSFIQNLVFCVERVYRVPDFGVWERGSKYNNGSTELHSSSVGLAKAALEAINGFNLFGNQGCSWSVIFVDLDAHNRNRQTLCSLLPRESRSHNTDAALLPCISYPAFALDDDVLYNQTLDKVIRKLKGKYGFKRFLRDGYRTSLEDPKRRYYKPAEIKLFDGIECEFPIFFLYMMIDGVFRGNPKQVKEYQDLLTPVLHQTTEGYPVVPKYYYVPADFVEYEKRNPGSQKRFPSNCGRDGKLFLWGQALYIIAKLLADELISPKDIDPVQRYVPLQNQRNVSMRYSNQGPLENDLVVHVALVAESQRLQVFLNTYGIQTQTPQQVEPIQIWPQQELVKAYFHLGINEKLGLSGRPDRPIGCLGTSKIYRILGKTVVCYPIIFDLSDFYMSQDVLLLIDDIKNALQFIKQYWKMHGRPLFLVLIREDNIRGSRFNPMLDMLAALKNGMIGGVKVHVDRLQTLISGAVVEQLDFLRISDTEELPEFKSFEELEPPKHSKVKRQSSTSNAPELEQQPEVSVTEWRNKPTHEILQKLNDCSCLASQTILLGILLKREGPNFITQEGTVSDHIERLYRRAGSKKLWLAVRYGAAFTQKFSSSIAPHITTFLVHGKQVTLGAFGHEEEVISNPLSPRVIKNIIYYKCNTHDEREAVIQQELVIHIGWIISNNPELFSGMLKIRIGWIIHAMEYELQIRSGDKPAKDLYQLSPSEVKQLLLDILQPQQNGRCWLNKRQIDGSLNRTPTGFYDRVWQILERTPNGIIVAGKHLPQQPTLSDMTMYEMNFSLLVEDMLGNIDQPKYRQIVVELLMVVSIVLERNPELEFQDKVDLDKLVKEAFHEFQKDESRLKEIEKQDDMTSFYNTPPLGKRGTCSYLTKVVMNLLLEGEVKPSNEDSCLVS
notes: phosphorylase kinase β subunit, regulatory; printed as 125 kDa, 1092 amino acids; source: purified from rabbit fast-twitch skeletal muscle as part of the PhK holoenzyme

What was measured:
Settings in all cases: both partners purified
[1] = target: T1, phosphorylase kinase α subunit (rabbit (endogenous in skeletal muscle), UniProt P18688 1-1237); test: SEC; analytical Superdex 200 gel filtration of the PhK preparation several months after purification; fractions analysed by SDS-PAGE with Coomassie staining; subunits co-purified as the native complex
T1 construct: phosphorylase kinase α subunit, regulatory, skeletal muscle; printed as 138 kDa, 1237 amino acids; In the aged preparation used for Superdex 200 gel filtration the α subunit may have been partly proteolysed; source: purified from rabbit fast-twitch skeletal muscle as part of the PhK holoenzyme
T1 sequence (looked up): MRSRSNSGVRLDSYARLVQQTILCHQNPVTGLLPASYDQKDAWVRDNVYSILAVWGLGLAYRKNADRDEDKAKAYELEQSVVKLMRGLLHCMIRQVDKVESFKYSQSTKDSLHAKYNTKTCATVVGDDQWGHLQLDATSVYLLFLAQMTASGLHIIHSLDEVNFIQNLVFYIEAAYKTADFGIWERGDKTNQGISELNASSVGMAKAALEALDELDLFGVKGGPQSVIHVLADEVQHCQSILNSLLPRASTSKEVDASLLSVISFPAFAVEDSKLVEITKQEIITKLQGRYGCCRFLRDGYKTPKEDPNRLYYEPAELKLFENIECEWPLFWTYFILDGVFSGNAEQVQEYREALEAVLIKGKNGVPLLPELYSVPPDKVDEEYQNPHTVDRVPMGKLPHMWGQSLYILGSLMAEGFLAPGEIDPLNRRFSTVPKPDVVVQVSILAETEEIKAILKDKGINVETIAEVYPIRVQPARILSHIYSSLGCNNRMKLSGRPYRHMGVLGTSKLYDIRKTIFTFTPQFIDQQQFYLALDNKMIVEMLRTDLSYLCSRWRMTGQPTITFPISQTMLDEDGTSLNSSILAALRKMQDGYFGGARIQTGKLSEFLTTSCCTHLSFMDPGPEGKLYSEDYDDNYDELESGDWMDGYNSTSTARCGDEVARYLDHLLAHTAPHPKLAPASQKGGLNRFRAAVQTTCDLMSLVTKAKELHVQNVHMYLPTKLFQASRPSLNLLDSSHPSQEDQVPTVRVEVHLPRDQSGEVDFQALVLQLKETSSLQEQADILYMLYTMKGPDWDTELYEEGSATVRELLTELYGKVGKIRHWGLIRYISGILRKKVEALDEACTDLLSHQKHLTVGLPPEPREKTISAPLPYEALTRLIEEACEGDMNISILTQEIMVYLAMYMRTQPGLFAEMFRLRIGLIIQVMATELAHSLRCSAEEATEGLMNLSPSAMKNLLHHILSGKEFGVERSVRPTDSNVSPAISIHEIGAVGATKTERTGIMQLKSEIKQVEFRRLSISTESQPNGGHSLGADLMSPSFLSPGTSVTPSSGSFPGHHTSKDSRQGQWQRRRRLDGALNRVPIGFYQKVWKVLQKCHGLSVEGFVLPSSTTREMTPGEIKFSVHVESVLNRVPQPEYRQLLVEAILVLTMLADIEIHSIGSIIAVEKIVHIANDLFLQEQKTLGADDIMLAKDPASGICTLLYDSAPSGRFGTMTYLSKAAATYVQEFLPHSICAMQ

[2] = target: T1, phosphorylase kinase α subunit; test: cryo-EM structure; PhK holoenzyme alone, subunits co-purified as the native complex from muscle; 100 mM NaCl, 0.3 mM CaCl2, 5 mM MgCl2, 50 mM HEPES pH 8.2; single-particle reconstruction at 9.9 Å; PhKγt (PDB 2PHK) fitted as a rigid body
[3] = target: T2, phosphorylase kinase δ subunit (intrinsic calmodulin) (rabbit (endogenous in skeletal muscle), UniProt P62160 1-149); test: as above
T2 construct: phosphorylase kinase δ subunit, the intrinsic calmodulin; printed as 16.7 kDa, 148 amino acids; also called δ-calmodulin subunit; calmodulin-δ-subunit; source: purified from rabbit fast-twitch skeletal muscle as part of the PhK holoenzyme

[4] = target: B1; test: as above

Does B1 bind [1]?
Result: binds

B2: phosphorylase kinase γ subunit (catalytic subunit) (natural protein)
chain: not shown
notes: phosphorylase kinase γ subunit, catalytic; also called γ catalytic subunit; γ kinase subunit; source: purified from rabbit fast-twitch skeletal muscle as part of the PhK holoenzyme
Does B2 bind [2]?
Result: binds

Does B2 bind [3]?
Result: binds

Does B2 bind [4]?
Result: binds
